Results taken from patent US20230295345A1 (published 2023).

T1: mouse TMPRSS6 expressed on HEK293T cells (MoTMPRSS6-(His)6) (mouse, UniProt Q9DBI0 1-811)
T1 construct: stably expressed in HEK293T cells; also called murine TMPRSS6
T1 sequence: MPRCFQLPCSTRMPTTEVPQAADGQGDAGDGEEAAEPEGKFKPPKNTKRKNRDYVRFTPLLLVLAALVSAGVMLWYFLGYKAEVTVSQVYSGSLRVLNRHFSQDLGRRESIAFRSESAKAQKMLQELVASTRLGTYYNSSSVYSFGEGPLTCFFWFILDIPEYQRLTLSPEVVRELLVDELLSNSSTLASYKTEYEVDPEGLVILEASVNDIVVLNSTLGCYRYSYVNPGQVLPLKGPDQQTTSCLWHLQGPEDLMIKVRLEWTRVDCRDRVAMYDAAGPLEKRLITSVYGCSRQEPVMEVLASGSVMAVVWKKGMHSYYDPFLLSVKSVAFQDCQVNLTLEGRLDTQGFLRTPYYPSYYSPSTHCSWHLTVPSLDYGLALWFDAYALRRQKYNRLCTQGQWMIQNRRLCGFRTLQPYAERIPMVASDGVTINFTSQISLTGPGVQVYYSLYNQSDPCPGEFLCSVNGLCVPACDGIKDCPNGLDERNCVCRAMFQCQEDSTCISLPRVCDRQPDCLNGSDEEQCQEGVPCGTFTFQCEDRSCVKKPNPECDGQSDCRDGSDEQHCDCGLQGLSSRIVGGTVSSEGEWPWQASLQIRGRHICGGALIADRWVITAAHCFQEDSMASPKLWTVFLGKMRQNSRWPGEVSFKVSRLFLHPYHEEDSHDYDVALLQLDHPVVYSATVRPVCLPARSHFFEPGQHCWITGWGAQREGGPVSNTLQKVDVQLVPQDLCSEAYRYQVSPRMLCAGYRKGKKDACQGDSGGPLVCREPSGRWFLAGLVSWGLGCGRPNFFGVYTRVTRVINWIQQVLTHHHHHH

T2: cynomolgus monkey TMPRSS6 expressed on HEK293T cells (CynoTMPRSS6-(His)6) (cynomolgus monkey, UniProt Q8IU80 10-811 (human entry))
T2 chain: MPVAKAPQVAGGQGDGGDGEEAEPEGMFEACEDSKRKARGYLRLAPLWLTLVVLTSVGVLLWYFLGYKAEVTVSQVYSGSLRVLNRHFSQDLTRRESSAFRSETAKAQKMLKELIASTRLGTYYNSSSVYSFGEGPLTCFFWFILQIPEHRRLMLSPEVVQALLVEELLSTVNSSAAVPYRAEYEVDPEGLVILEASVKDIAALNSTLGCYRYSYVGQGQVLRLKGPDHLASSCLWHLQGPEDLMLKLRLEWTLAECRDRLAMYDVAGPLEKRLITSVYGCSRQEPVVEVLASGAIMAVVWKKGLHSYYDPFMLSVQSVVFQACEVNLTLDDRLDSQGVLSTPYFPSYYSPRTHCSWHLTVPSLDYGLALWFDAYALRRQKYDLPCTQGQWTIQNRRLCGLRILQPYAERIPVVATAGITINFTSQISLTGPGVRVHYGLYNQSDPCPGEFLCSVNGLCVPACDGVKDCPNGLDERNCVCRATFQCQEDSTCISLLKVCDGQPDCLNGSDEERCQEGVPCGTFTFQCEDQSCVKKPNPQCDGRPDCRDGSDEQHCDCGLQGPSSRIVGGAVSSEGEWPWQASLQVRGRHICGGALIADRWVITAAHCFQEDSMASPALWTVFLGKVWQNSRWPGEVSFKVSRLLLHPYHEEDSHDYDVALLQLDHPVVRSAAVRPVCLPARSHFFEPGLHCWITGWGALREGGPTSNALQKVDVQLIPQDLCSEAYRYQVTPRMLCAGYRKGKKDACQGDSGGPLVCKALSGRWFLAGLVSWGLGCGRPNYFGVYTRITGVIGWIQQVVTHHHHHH


Tests used:
[1] = biological target: T1, mouse TMPRSS6 expressed on HEK293T …; test: cell surface ELISA on fixed HEK293T cells expressing mouse TMPRSS6
Description: HEK293T cells stably expressing mouse TMPRSS6 (generated by LakePharma Inc as described above, FIGS. 4J, 4L, 4N, 4P, 4R, 4T) or cynomolgus monkey (generated in house as described above, FIGS. 4K, 4M, 4O, 4Q, 4S, 4U) were fixed with methanol (100%), and washed with dPBS (Dulbecco’s phosphate-buffered saline, Corning Cellgro) before incubation with various concentrations of anti-TMPRSS6 antibodies and their humanized variants diluted in BSA medium (DMEM + 1% Pen/Strep + 10 mM HEPES + 1 mg/ml BSA (Sigma-Aldrich)). Purified mouse IgG (FIGS. 4J-4O) or Human IgG1 (FIGS. 4P-4U) was used as a control. After incubation, cells were washed with BSA medium and then incubated with goat anti-mouse (Invitrogen, FIGS. 4J-4O) or anti-human (Millipore, FIGS. 4P-4U) IgG conjugated with HRP as a 2° antibody. Finally, cells were washed with dPBS to remove unbound antibody and color developed with ELISA liquid substrate (Sigma-Aldrich), followed by stopping the reaction with addition of the same volume of ELISA liquid substrate of 1 M H₂SO₄. Bound antibody was measured by absorbance at OD₄₅₀ₙₘ.

[2] = biological target: T2, cynomolgus monkey TMPRSS6 expressed on …; test: FACS on HEK293T cells transiently expressing cynomolgus monkey TMPRSS6
Description: (§1) Selected anti-TMPRSS6 antibodies were tested to determine whether any are capable of binding to TMPRSS6 from mouse and/or cynomolgus monkey. HEK293T cells stably expressing human TMPRSS6 (HuTMPRSS6-(His)₆) (generated by LakePharma Inc as described above), HEK293T cells stably expressing mouse TMPRSS6 (MoTMPRSS6-(His)₆) (SEQ ID NO: 98) (generated by LakePharma Inc as described above) and HEK293T cells transiently expressing cynomolgus monkey TMPRSS6 (CynoTMPRSS6-(His)₆) (SEQ ID NO: 99) (generated in house) were collected. HEK293T cells stably expressing human TMPRSS6 were used as a positive control and HEK293T cells were used as a negative control (as described above). Cells were blocked with dPBS + 3% BSA before incubation with anti-TMPRSS6 antibodies diluted in dPBS + 3% BSA. After incubation, cells were washed with dPBS and followed by another incubation with goat anti-mouse IgG conjugated with AlexaFluor-488 as a 2° antibody (Invitrogen). At last, cells were washed with dPBS to remove unbound antibody, re-suspended with dPBS + 1 mM EDTA, and then subjected to FACS analysis using a NOVOCYTE® Flow Cytometer (ACEA Biosciences, Inc., San Diego CA). Bound antibody was determined by excitation at 488 nm and measurement of emission (FITC-A) at 530 nm. Results for these assays are shown in histogram plots in FIGS. 4A-4I.

[3] = biological target: T1, mouse TMPRSS6 expressed on HEK293T …; test: FACS on HEK293T cells stably expressing mouse TMPRSS6
Description: as §1

Row | Binder | binding result [1] | binding result [2] | binding result [3]
1 | MWTx-003 anti-TMPRSS6 antibody (antibody, mouse IgG2b, kappa, V domains shown, Mouse monoclonal antibody from a hybridoma (ATCC PTA-126761); also called r4K12B (recombinantly expressed version, same HC and LC)) VH: EVQLQQSGAELVKPGASVKLSCTASGFNIEDYYIHWVKERTEQGLEWIGRIDPEDGETTYAPQFQGKATIIPDTSSNTAYMQLSSLTSEDAAVYYCARSIYLDPMDYWGQGTSVTVSS VL: DIVMTQSHKFMSTSVGDRVSITCKASQDVTTAVAWYQQKPGQSPKILIYWATTRHTGVPDRFTGSISGTTYILTISSVQAEDLALYYCQQHYSTPYTFGGGTKLEIKR | binds | binds | 
2 | MWTx-001 anti-TMPRSS6 antibody (antibody, mouse IgG2a, kappa, V domains shown, Mouse monoclonal antibody from a hybridoma (ATCC PTA-126759)) VH: QVQLQQPGAELAKPGASVKMSCKASGYTFTSYWITWVKQRPGQDLEWIGNIYPGSGSTYYNEKFKSKATLTVDTSSRTAYMQLSSLTSADSAVYYCAPYDSDYAMDYWGQGTSVTVSS VL: DIKMTQSPSSMYASLGERVTITCKASQDINNYLSWFQQKPGKSPKTLIYRANRLVDGVPSRVSGSGSGQDYSLTISSLEYEDVGIYFCLQYDEFPLTFGAGTKLELKR | binds |  | 
3 | hzMWTx-003Var anti-TMPRSS6 antibody (antibody, human IgG1, kappa, L234A L235A, V domains shown, Humanized variant of MWTx-003, human IgG1/kappa) VH: QVQLVQSGAEVKKPGASVKVSCKASGFNIEDYYMHWVRQAPGQRLEWMGRIDPEDAETTYSPKFQGRVTIIPDTSANTAYMELSSLRSEDTAVYYCARSIYLDPMDYWGQGTLVTVSS VL: DIQMTQSPKSLSASVGDRVTITCRASQDVTTALAWYQQKPGQSPKLLIYWATTRHSGVPSRFSGSGSGTDFTLTISSLQPEDFATYYCQQHYSTPYTFGQGTKLEIKR | binds |  | 

Results, then the binder that gave them:

Row | binding result [1] | binding result [2] | binding result [3] | Binder
4 |  |  | no binding | MWTx-002 anti-TMPRSS6 antibody (antibody, mouse IgG2b, kappa, V domains shown, Mouse monoclonal antibody from a hybridoma (ATCC PTA-126760)) VH: EVQLQQSGAELVKPGASVKLSCTASGFNIKDYYIHWVKERTEQGLEWFGRIDPEDGESEYAPKFQGKATLTADTSSNTAYLQLSSLTSEDTAVYYCTRGDSMMVTYFDYWGQGTTLTVSS VL: DIVMTQSHKFMSTSVGDRVSITCKASQDVSTAVAWYQQKPGQSPKLLIYWAFTRHTGVPDRFTSTGSGTDYALTISSVQAEDLALYYCQQHYRSPWTFGGGTKLEIKR
5 | no binding |  |  | hzMWTx-002Var anti-TMPRSS6 antibody (antibody, human IgG1, kappa, N297A, V domains shown, Humanized variant of MWTx-002, human IgG1/kappa) VH: EVQLVQSGAEVKKPGASVKVSCKASGFNIKDYYIHWVRQATGQGLEWMGRIDPEDAESEYAPKFQGRVTITADTSTDTAYMELSSLRSEDTAVYYCTRGDSMMVTYFDYWGQGTLVTVSS VL: DIQMTQSPSSLSASVGDRVTITCKASQDVSTAVAWYQQKPGKAPKLLIYWAFTRHTGVPSRFSGSGSGTDYALTISSLQPEDFATYYCQQHYRSPWTFGGGTKVEIKR
6 | binds |  |  | hzMWTx-001Var anti-TMPRSS6 antibody (antibody, human IgG1, kappa, N297A, V domains shown, Humanized variant of MWTx-001, human IgG1/kappa) VH: EVQLVQSGAEVKKPGASVKVSCKASGYTFTSYWITWVRQAPGQRLEWIGNIYPGSGSTYYNEKFKSKATITRDTSSRTAYMELSSLRSEDTAVYYCAPYDADYAMDYWGQGTLVTVSS VL: DIQMTQSPSSLSASVGDRVTITCKASQDISNYLSWFQQKPGKAPKLLIYRANRLVEGVPSRFSGSGSGTDFTLTISSLQPEDFATYFCLQYDEFPLTFGGGTKVEIKR
